The record followed here is patent CN107840891A.

Changes are numbered by the printed parent chain.

The labels stand for the following.
B1: MN单链抗体 (scFv MN, wild type) (scFv, V domains shown)
VH: QVQLQQPGAELVKPGASMKLSCKASGYTFTSYWMHWVKQRPGQGLEWIGMIHPNSDNTIYYEKFKSKATLTVDKSSSTAYMQLSSLTSEDSAVYYCAIIITPVVPKFDYWGQGTTLTVSS
VL: DIVMTQSHQFMSTSVGDRVSVTCKASHDVGTSVAWYQQKPGQSPKLLIYWASTRHTGVPDRFTGSGSGTDFTLTISNVQSEDLADYFCQQYSSYPLTFGAGTKLELK
B2: 2G8 (scFv, V domains shown)
VH: B1 VH with Y27T, T28Q, T30A, S31N, W33R
VL: B1 VL
B3: 3E12 (scFv, V domains shown)
VH: B1 VH with H52N, P53L, N54V, D56S, N57R
VL: B1 VL
B4: 7D5 (scFv, V domains shown)
VH: B1 VH
VL: B1 VL with W50K, T53N, R54N, H55K, T56K
B5: 8C9 (scFv, V domains shown)
VH: B1 VH
VL: B1 VL with K24M
B6: 7E10 (scFv, V domains shown)
VH: B1 VH
VL: B1 VL with W50N, T53S, H55G, T56G
B7: 3F9 (scFv, V domains shown)
VH: B1 VH with D56Q
VL: B1 VL
B8: 9F5 (scFv, V domains shown)
VH: B1 VH
VL: B1 VL with W50Q, T53K, R54K, H55E, T56K
B9: 4A12 (scFv, V domains shown)
VH: B1 VH with I99V, T101L, V103F, V104L
VL: B1 VL
B10: 4C11 (scFv, V domains shown)
VH: B1 VH with P53L, D56A, N57Q
VL: B1 VL
B11: 2D9 (scFv, V domains shown)
VH: B1 VH with P53A, N54Q
VL: B1 VL
B12: 5F7 (scFv, V domains shown)
VH: B1 VH
VL: B1 VL with S92A, T97S
B13: 4D7 (scFv, V domains shown)
VH: B1 VH with I99T, T101S
VL: B1 VL
B14: 2F9 (scFv, V domains shown)
VH: B1 VH with M50G, H52E, P53Q, D56S, N57E
VL: B1 VL

Usually koff stands for the first-order rate constant of dissociation.

The first test addresses MSLN抗原 (Mesothelin, MSLN-Biotin) (human) (UniProt Q13421). In words: BLI (Octet RED96), MSLN-Biotin on AR2G sensor, TG1 periplasmic scFv as analyte (表2.4). (In general: In BLI a coated tip is dipped into the sample, and binding shifts an interference pattern.)
Chain of UniProt Q13421 (Q13421 296-606 limits assumed): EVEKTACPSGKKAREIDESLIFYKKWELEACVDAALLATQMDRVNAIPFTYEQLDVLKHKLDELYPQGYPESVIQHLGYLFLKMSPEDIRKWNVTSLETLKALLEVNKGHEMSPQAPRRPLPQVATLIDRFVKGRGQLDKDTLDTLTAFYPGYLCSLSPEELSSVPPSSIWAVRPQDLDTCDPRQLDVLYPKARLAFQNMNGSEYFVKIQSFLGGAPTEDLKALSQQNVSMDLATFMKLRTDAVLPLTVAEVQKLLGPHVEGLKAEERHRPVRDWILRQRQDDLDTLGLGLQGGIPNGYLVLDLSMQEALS
For the molecule B1, the off-rate (koff) was 0.000188 s⁻¹ and the 响应 was 0.37.

The next test shares this target. The test is described as follows: BLI (Octet RED96), MSLN-Biotin on AR2G sensor, TG1 periplasmic scFv as analyte (表2.2).
With B1, the off-rate constant (koff) came out at 0.000221 s⁻¹ and the 响应 worked out at 0.38.

The target is the same in a further test. In words: BLI (Octet RED96), MSLN-Biotin on AR2G sensor, TG1 periplasmic scFv as analyte.
Consider B2, for which the dissociation rate constant (koff) was 0.00111 s⁻¹ and the 响应 is 1.11.
For B3 the same measures were 9.73e-05 s⁻¹ and 1.04.
The corresponding values for B4 are 0.000395 s⁻¹ and 0.94.
The corresponding values for B5 are 0.000356 s⁻¹ and 0.93.
For the molecule B6, the koff was found to be 0.000401 s⁻¹ and the 响应 was 1.02.
Molecule B7 came in with an off-rate constant (koff) of 0.000164 s⁻¹ and a 响应 of 1.38.
For B8 the same measures were 0.000294 s⁻¹ and 0.97.
Turning to B9, the koff was 0.0001 s⁻¹ and the 响应 amounted to 0.91.
For B10 the same measures were 0.000133 s⁻¹ and 1.16.
The corresponding values for B11 are 0.000217 s⁻¹ and 1.25.
The corresponding values for B12 are 0.000613 s⁻¹ and 0.73.
As for B13, the koff stood at 0.000321 s⁻¹ and the 响应 was determined as 0.96.
The corresponding values for B14 are 0.00166 s⁻¹ and 0.13.

The target is the same in a further test. In words: BLI (Octet RED96), MSLN-Biotin on AR2G sensor, TG1 periplasmic scFv as analyte (表2.1).
As to B1, the koff is 0.000164 s⁻¹ and the 响应 was 0.37.
